In the supplement of paper PMC9170038:

Experiments:
MS2 coat protein [1] = experiment: apparent KD of MS2 coat protein, switch ON state; designed switch direction (-1 OFF switch, 1 ON switch): -1; higher = weaker reporter binding; details: FMN input: 0 or 200 uM; Eterna round: R93 (includes R88 designs)
Summary of the method: (§1)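 Each design's apparent KD comes from the median of binding-curve fits to its normalised clusters. Those clusters carried RNA switches transcribed on-chip from Illumina sequencing clusters. SNAP-549-labelled MS2 coat protein was titrated onto them in twofold steps (0.7 or 1.5 nM to 3 µM; per step 0.8–1.5 h down to 10–20 min). Conditions were 100 mM Tris-HCl pH 7.5, 80 mM KCl, 4 mM MgCl2, without or with constant ligand.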

MS2 coat protein [2] = experiment: apparent KD of MS2 coat protein, switch OFF state (with FMN for OFF switches, without FMN for ON switches); designed switch direction (-1 OFF switch, 1 ON switch): -1; higher = weaker reporter binding; details: FMN input: 0 or 200 uM; Eterna round: R93 (includes R88 designs)
Summary of the method: as §1

Sequence	apparent KD of MS2 coat protein (MS2 coat protein [1]) [nM]	apparent KD of MS2 coat protein (MS2 coat protein [2]) [nM]
AACAUGUUAGGAUAUGAAAGAAAAGAAAAGAAAGAAAAGAAUCAGAAGGAACAUGAGGAUCACCCAUGUAAGAA [EteRNA is fun!]	25.6	19.8
AACCAACAUGAGGAUCACCCAUGUCAGGAUAUGCAUACAACAUACAACAUACAUCAAAGCAGAAGGGACAAAAA [Amethyst 83]	26.1	24.1
AACGAAUGAGGAUAUACAAACAGAAAAAUCAGACAUAACAGACAUGAGGAUCACCCAUGUAGAAGGCAUAAACA [JR_Exc002_Sub902]	25.5	18.7
AACGAGUCAGGAUAUGCUAUAAAUUAAUAAAUAAAAUUAUAGCAGAAGGGACAUGAGGAUCACCCAUGUAAAUA [JR_Exc004_Sub201]	45.7	42.2
AACGCACAUGAGGAUCACCCAUGUCAGGAUAUCGUGGCGGGAAAAACCGGGAAACGCACGAGAAGGGACAAAAA [EX1 Malc#18 Mod 14 - Jieux - Exclusion 1]	47.6	42.2
AACUAGCUAGGAUAUACAUGAGGAUCACCCAUGUAAAAAAAAAAAAAAAAAUUUUUAUGUAGAAGGAGCUAGUA [Design 1 - Brourd - Exclusion 3]	27.9	35.4
AACUAGCUAGGAUAUACAUGAGGAUCACCCAUGUAAAAAAAAAAAAAAAGAUUUAUAUGUAGAAGGAGCUAGUA [Design 3 - Brourd - Exclusion 3]	31.6	61.8
AACUCGUCAGGAUAUGCGCACAGAUAAUACGCUACACAAAAGCAGAAGGGACAUGAGGAUCACCCAUGUAAAUA [JR_Exc004_Sub503]	35.1	22.1
AACUGACAUGAGGAUCACCCAUGUCAGGAUAUGACAUCGAGAAAUAAAUAAAUCGUUGUCAGAAGGGACAUGAA [Design 79: Sub-opt TB]	17.5	13.4
AACUGACAUGAGGAUCACCCAUGUCAGGAUAUGACUUCAAAAAAAAAAAAAAAUGAUGUCAGAAGGGACAUGAA [Design 62: Sub-opt L]	24.4	19.3
AACUGACAUGAGGAUCACCCAUGUCAGGAUAUGCUUCAUAAAAACAAACAAAAAUGAUGCAGAAGGGACAUGGG [Design 31 :P Sub-opt 7]	17.1	39.5
AACUGUACAGGAUAUACAUGAGGAUCACCCAUGUGAGAAUUAAGUGGCGUACCACAAAGUAGAAGGGUACAGGA [Mat - Exclusion 3 - JL mod - D15]	36.4	192
AAGAAACAAGGAUAUACAAGGAAGAAAGAAAAGAAAAGAAAACAUGAGGAUCACCCAUGUAGAAGGUGUUAGAA [EteRNA is fun!]	40.3	27.9
AAGAAACAAGGAUAUACAUGAGGAUCACCCAUGUAAAAGAAAGAAAGGGAAGAGAAAAGUAGAAGGUGUAAGAA [Publius Rubrius Barbarus]	26.1	46
AAGAAACAUGAGGAUCACCCAUGUAAGGAUAUGUAAAAGAAAAGAAAAGAAAGAAGAAACAGAAGGUACAAAGG [Wahankh Intef II]	46	33.7
AAGAAACAUGAGGAUCACCCAUGUCAGGAUAUAGAAAAGAAAAGAAAAGAAAGAAGAACUAGAAGGGACAAAGG [Menkare]	34.1	34
AAGAAACAUGAGGAUCACCCAUGUCAGGAUAUCGAAAAGAAAAGAAAAGAAAGAAGAACGAGAAGGGACAAAGG [Qakare Ibi]	59.6	67.8
AAGAAACAUGAGGAUCACCCAUGUCAGGAUAUGCAAGACUGACGAAAGUCAGUCAAAAGCAGAAGGGACUAGAA [7-pair stack]	28	51.5
AAGAAACAUGAGGAUCACCCAUGUCAGGAUAUUGAAGAAAGAAAGAAAGAAAGAAGAACAAGAAGGGACAAAGG [Gaius Vitrasius Pollio]	44.3	33.3
AAGAAACAUGAGGAUCACCCAUGUGAGGAUAUACAAGAAAGAAAGAAAGAAAGAAGAAGUAGAAGGCACAAAGG [Gaius Valerius]	31.4	14.4
AAGAAACAUGAGGAUCACCCAUGUGAGGAUAUCAAAAAGAAAAGAAAAGAAAGAAGAAUGAGAAGGCACAAAGG [Mery—]	30.5	32.5
AAGAAACAUGAGGAUCACCCAUGUGAGGAUAUGCAAAAGAAAAGAAAAGAAAGAAGAAGCAGAAGGCACAAAGG [Neferkahor]	49.1	138
